Here are results for three molecules from PMC6344544, “Illuminating the catalytic core of ectoine synthase through structural and biochemical analysis” (Scientific Reports, 2019).

Series [1] has as its target T1, ectoine synthase (Pl)EctC (Paenibacillus lautus, UniProt A0A1R1AV52).
T1 construct: full-length (130 amino acids), C-terminal Strep-tag II
Nature of the series: X-ray crystal structure ([…] Å). The series is classed as binding.

The target of series [2] is Paenibacillus lautus ectoine synthase fused at its C-terminus to a Strep-tag II affinity peptide [(Pl)EctC-Strep-tag II] (Paenibacillus lautus Y4.12MC10). Nature of the series: SEC-MALS; HPLC-MALS; 200 µl of purified (Pl)EctC protein (2 mg ml^-1) loaded onto a Bio SEC-5 HPLC column; measured mass 32.2 kDa against 15.87 kDa calculated for the monomer.
Substrate in the series “purified protein”: CC(=O)NCC[C@H](N)C(=O)O
Nature of the series: purified protein. The series is classed as binding, Paenibacillus lautus. The note with it: Fe2+ active site in the cupin barrel; Trp-21, Arg-25, Asn-38, Thr-40, Tyr-52, Glu-57; acetamide oxygen coordinates the iron.

Take `CC1=N[C@H](C(=O)O)CCN1` [ectoine, (S)−2-methyl-1,4,5,6-tetrahydropyrimidine-4-carboxylic acid]: the “X-ray crystal structure (2.5 Å)” value in series [1] was “The ectoine molecule is coordinated within the active site of the (Pl)EctC enzyme through five direct interactions”. A word on the stoichiometry N: it is the number of molecules, sites or subunits per partner or assembly. As to “Paenibacillus lautus ectoine synthase fused at its C-terminus to a Strep-tag II affinity peptide [(Pl)EctC-Strep-tag II] (enzyme)”, the stoichiometry N in series [2] is 2.

B1: ectoine synthase (Pl)EctC (Paenibacillus lautus) (protein)
chain: MIVKHLEEIVDTKDDIDTKTWNSRRLLLTKDGMGFSLNDTLIKAGTETLIWYKNHVEAVYCIEGEGEIEVIGGETYPISPGMMYALDGHEKHYLRARSQMRMVCVFNPPLTGAEVHDEEGTYPLLAPISD
notes: full-length (130 amino acids), C-terminal Strep-tag II
As a reminder, the Km is the concentration of substrate that gives half-maximal velocity. As for B1, the Km in “purified protein” is 7.8 mM.
